This passage reports binding signal results from paper PMC6555819, “Comprehensive study of nuclear receptor DNA binding provides a revised framework for understanding receptor specificity”.

The labels stand for the following.
B1: NRC3_wobSeed143_DR5_G12T_o1 (dsDNA)
DNA 1: GCAGAACGAGGTCACGCTGAGTTGATAGCAGAGTAGGCGATTGACAGCGTAGAATGAAGG
DNA 2: CCTTCATTCTACGCTGTCAATCGCCTACTCTGCTATCAACTCAGCGTGACCTCGTTCTGC
B2: NRC3_wobSeed75_DR3_A12T_o1 (dsDNA)
DNA 1: GCTCTCGGAGGTCACGAAGGTCAGAGCTTTCCAGAGGCGATTGACAGCGTAGAATGAAGG
DNA 2: CCTTCATTCTACGCTGTCAATCGCCTCTGGAAAGCTCTGACCTTCGTGACCTCCGAGAGC
B3: NRC3_random_hg19_102_o1 (dsDNA)
DNA 1: GCCAGATGAAATGACCAGGCTGTTACCAGGGTCTATGCGATTGACAGCGTAGAATGAAGG
DNA 2: CCTTCATTCTACGCTGTCAATCGCATAGACCCTGGTAACAGCCTGGTCATTTCATCTGGC
B4: NRC3_wobSeed53_DR2_A17T_o1 (dsDNA)
DNA 1: GCCCTTACGGGTCACGTGGTTATAGCACGACGAGCGGCGATTGACAGCGTAGAATGAAGG
DNA 2: CCTTCATTCTACGCTGTCAATCGCCGCTCGTCGTGCTATAACCACGTGACCCGTAAGGGC
B5: NRC3_random_hg19_273_o1 (dsDNA)
DNA 1: GCTGCAGGGTTTCTACCGAGAAGTCTGCTGTTAGTCGCGATTGACAGCGTAGAATGAAGG
DNA 2: CCTTCATTCTACGCTGTCAATCGCGACTAACAGCAGACTTCTCGGTAGAAACCCTGCAGC
B6: NRC3_random_hg19_444_o1 (dsDNA)
DNA 1: GCGGGTGTGGTCGTGGGCACCTGCAGTCCCAGCTACGCGATTGACAGCGTAGAATGAAGG
DNA 2: CCTTCATTCTACGCTGTCAATCGCGTAGCTGGGACTGCAGGTGCCCACGACCACACCCGC
B7: NRC3_wobSeed137_DR5_C19G_o1 (dsDNA)
DNA 1: GCATATGTAGGTTACATCGGGGTCATTCAGGCTATGGCGATTGACAGCGTAGAATGAAGG
DNA 2: CCTTCATTCTACGCTGTCAATCGCCATAGCCTGAATGACCCCGATGTAACCTACATATGC
B8: NRC3_wobSeed37_DR1_A8G_o1 (dsDNA)
DNA 1: GCCGTCCGAGGTCAAAGGTCAGTGAAGAGATGACGGGCGATTGACAGCGTAGAATGAAGG
DNA 2: CCTTCATTCTACGCTGTCAATCGCCCGTCATCTCTTCACTGACCTTTGACCTCGGACGGC
B9: NRC3_wobSeed34_DR1_G6A_o1 (dsDNA)
DNA 1: GCATCAAAAGGTCGAAGGTGAGTATACCCACCCGAAGCGATTGACAGCGTAGAATGAAGG
DNA 2: CCTTCATTCTACGCTGTCAATCGCTTCGGGTGGGTATACTCACCTTCGACCTTTTGATGC
B10: NRC3_wobSeed85_DR3_G24C_o1 (dsDNA)
DNA 1: GCCGTCCAAGGTCAGAGAGGTCACTGAATGCCGAGTGCGATTGACAGCGTAGAATGAAGG
DNA 2: CCTTCATTCTACGCTGTCAATCGCACTCGGCATTCAGTGACCTCTCTGACCTTGGACGGC
B11: NRC3_wobSeed119_DR4_G12T_o1 (dsDNA)
DNA 1: GCGGAACGAGGTCATTCGAGTTGATAGCATGGCGATGCGATTGACAGCGTAGAATGAAGG
DNA 2: CCTTCATTCTACGCTGTCAATCGCATCGCCATGCTATCAACTCGAATGACCTCGTTCCGC
B12: NRC3_random_hg19_177_o1 (dsDNA)
DNA 1: GCATCTTTAGCAAGATACTTCATAGGTACTACTGTGGCGATTGACAGCGTAGAATGAAGG
DNA 2: CCTTCATTCTACGCTGTCAATCGCCACAGTAGTACCTATGAAGTATCTTGCTAAAGATGC
B13: NRC3_wobSeed89_DR3_G16C_o1 (dsDNA)
DNA 1: GCCTATGTAGGTTAACGGGGTCATTCAGTTTGAAAGGCGATTGACAGCGTAGAATGAAGG
DNA 2: CCTTCATTCTACGCTGTCAATCGCCTTTCAAACTGAATGACCCCGTTAACCTACATAGGC
B14: NRC3_wobSeed120_DR4_T13C_o1 (dsDNA)
DNA 1: GCCCGAGTAGGTCACGAGGGGGCATTCAGTGCGAATGCGATTGACAGCGTAGAATGAAGG
DNA 2: CCTTCATTCTACGCTGTCAATCGCATTCGCACTGAATGCCCCCTCGTGACCTACTCGGGC
B15: NRC3_wobSeed109_DR4_G21T_o1 (dsDNA)
DNA 1: GCCGTCCAAGGTCATAGGAGTTCAGTGAAGACAGATGCGATTGACAGCGTAGAATGAAGG
DNA 2: CCTTCATTCTACGCTGTCAATCGCATCTGTCTTCACTGAACTCCTATGACCTTGGACGGC
B16: NRC3_wobSeed109_DR4_G17C_o1 (dsDNA)
DNA 1: B15 DNA 1 with G17C, T21G
DNA 2: B15 DNA 2 with A40C, C44G
B17: NRC3_wobSeed95_DR3_G22C_o1 (dsDNA)
DNA 1: GCAGAACGAGGGCAATGAGTTCATAGCACGGGTGGCGCGATTGACAGCGTAGAATGAAGG
DNA 2: CCTTCATTCTACGCTGTCAATCGCGCCACCCGTGCTATGAACTCATTGCCCTCGTTCTGC
B18: NRC3_wobSeed113_DR4_T13C_o1 (dsDNA)
DNA 1: GCATATGTAGGTCAGCTGGGGTCATTCAGACTAGGCGCGATTGACAGCGTAGAATGAAGG
DNA 2: CCTTCATTCTACGCTGTCAATCGCGCCTAGTCTGAATGACCCCAGCTGACCTACATATGC
B19: NRC3_wobSeed121_DR5_A19G_o1 (dsDNA)
DNA 1: GCCAAACTAGGTCACCGGGAGGTCAAAGTCCGCATGGCGATTGACAGCGTAGAATGAAGG
DNA 2: CCTTCATTCTACGCTGTCAATCGCCATGCGGACTTTGACCTCCCGGTGACCTAGTTTGGC
B20: NRC3_wobSeed13_DR0_A14T_o1 (dsDNA)
DNA 1: GCCGTCCAAGGTCTAGGTCAGTGAAAGAGACTCGAAGCGATTGACAGCGTAGAATGAAGG
DNA 2: CCTTCATTCTACGCTGTCAATCGCTTCGAGTCTCTTTCACTGACCTAGACCTTGGACGGC
B21: NRC3_random_hg19_28_o1 (dsDNA)
DNA 1: GCCATCTAAAGCCTTGACAGGCTGGGATAGCTGCTTGCGATTGACAGCGTAGAATGAAGG
DNA 2: CCTTCATTCTACGCTGTCAATCGCAAGCAGCTATCCCAGCCTGTCAAGGCTTTAGATGGC

Changes are numbered by the printed parent chain.

Sequence of VDR:RXRa (P11473 whole entry, chain 1 of 2): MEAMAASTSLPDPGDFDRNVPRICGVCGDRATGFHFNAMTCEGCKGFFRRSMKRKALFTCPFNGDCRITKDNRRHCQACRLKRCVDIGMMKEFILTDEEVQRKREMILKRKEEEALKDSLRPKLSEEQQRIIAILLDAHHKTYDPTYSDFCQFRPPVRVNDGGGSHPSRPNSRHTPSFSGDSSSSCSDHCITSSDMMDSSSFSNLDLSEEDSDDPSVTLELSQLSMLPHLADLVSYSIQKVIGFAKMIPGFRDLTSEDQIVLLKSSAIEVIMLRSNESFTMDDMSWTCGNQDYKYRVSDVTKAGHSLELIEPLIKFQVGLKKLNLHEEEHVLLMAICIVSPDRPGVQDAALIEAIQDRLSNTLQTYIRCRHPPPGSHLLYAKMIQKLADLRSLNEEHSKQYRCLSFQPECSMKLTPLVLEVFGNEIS
Sequence of VDR:RXRa (P19793 whole entry, chain 2 of 2): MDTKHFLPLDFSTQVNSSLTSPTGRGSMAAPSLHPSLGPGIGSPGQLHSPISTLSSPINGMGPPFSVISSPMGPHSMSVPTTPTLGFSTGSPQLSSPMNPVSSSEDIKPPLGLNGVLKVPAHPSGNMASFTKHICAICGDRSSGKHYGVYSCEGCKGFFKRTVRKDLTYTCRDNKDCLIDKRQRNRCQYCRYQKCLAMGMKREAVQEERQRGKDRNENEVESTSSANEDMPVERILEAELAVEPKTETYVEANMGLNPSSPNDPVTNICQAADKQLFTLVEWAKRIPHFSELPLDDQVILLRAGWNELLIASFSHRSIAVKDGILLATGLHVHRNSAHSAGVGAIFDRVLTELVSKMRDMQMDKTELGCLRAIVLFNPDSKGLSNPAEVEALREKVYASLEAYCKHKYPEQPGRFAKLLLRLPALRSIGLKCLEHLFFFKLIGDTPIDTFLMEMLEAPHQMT
Sequence of PXR:RXRa (O75469 whole entry, chain 1 of 2): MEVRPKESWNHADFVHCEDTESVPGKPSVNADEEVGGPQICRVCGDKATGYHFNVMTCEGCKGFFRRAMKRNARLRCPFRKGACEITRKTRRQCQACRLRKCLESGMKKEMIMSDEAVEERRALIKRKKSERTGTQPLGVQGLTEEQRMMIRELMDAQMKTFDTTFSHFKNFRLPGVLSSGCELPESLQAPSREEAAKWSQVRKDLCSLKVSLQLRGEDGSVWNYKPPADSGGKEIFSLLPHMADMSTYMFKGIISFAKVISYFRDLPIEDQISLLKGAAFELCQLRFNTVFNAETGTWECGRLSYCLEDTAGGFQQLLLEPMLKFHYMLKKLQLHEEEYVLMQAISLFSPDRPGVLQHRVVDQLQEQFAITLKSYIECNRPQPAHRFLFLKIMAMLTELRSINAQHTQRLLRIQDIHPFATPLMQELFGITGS
Sequence of PXR:RXRa (P19793 whole entry, chain 2 of 2): as the sequence (P19793 whole entry, chain 2 of 2) above
Sequence of RARg:RXRa (P13631 whole entry, chain 1 of 2): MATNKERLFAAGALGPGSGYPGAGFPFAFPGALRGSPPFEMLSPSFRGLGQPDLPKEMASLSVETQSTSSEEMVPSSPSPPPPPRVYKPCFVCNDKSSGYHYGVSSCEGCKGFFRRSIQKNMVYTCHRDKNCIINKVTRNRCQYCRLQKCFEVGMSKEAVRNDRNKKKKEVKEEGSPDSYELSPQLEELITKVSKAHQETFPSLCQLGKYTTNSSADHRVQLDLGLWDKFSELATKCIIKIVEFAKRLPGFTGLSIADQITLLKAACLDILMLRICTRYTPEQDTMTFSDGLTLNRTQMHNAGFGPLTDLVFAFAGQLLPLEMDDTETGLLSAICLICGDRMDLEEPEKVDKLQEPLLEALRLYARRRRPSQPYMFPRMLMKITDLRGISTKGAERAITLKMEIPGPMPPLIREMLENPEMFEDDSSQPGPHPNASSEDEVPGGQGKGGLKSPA
Sequence of RARg:RXRa (P19793 whole entry, chain 2 of 2): as the sequence (P19793 whole entry, chain 2 of 2) above
Sequence of RARb:RXRa (P10826 whole entry, chain 1 of 2): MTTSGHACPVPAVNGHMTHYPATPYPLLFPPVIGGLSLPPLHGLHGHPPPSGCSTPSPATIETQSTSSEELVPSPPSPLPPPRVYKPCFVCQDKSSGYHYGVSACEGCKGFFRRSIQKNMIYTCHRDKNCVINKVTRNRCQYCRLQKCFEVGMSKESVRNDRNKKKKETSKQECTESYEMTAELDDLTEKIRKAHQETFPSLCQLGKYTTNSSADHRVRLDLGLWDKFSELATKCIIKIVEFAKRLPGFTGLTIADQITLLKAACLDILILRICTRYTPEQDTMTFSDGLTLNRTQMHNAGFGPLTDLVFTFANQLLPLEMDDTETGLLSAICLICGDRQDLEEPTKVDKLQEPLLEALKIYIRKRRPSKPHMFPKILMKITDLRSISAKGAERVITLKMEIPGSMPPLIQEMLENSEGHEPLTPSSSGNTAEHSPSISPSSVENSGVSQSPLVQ
Sequence of RARb:RXRa (P19793 whole entry, chain 2 of 2): as the sequence (P19793 whole entry, chain 2 of 2) above
Sequence of LXRa:RXRa (Q13133 whole entry, chain 1 of 2): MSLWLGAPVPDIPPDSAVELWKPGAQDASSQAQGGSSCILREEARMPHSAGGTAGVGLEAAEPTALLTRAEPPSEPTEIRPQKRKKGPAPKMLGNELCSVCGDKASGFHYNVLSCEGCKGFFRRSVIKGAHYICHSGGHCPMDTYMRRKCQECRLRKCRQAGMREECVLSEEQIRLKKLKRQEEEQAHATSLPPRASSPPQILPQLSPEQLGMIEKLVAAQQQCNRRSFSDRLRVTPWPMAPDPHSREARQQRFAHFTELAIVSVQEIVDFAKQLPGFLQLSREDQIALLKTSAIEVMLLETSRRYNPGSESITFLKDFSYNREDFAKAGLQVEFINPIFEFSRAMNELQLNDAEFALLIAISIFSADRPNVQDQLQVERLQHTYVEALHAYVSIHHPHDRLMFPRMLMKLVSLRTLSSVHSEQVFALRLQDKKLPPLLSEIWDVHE
Sequence of LXRa:RXRa (P19793 whole entry, chain 2 of 2): as the sequence (P19793 whole entry, chain 2 of 2) above

For one series, the target named is RXRa (Homo sapiens, UniProt P19793). Briefly: no ligand; PBM; 180 nM; PBS pH 7.4, 2% milk, 0.02% Triton X-100, 1 mM DTT, BSA, 0.4 mg/ml salmon testes DNA. Conditions: tags: His cleaved; chain copies: 2; label: surface-attached array probe.
Sequence of RXRa (P19793 whole entry): as the sequence (P19793 whole entry, chain 2 of 2) above
As for B1, the binding signal was 8.4 PBM z-score against 500 random probes.

Consider B2, for which the binding signal is 8.41 PBM z-score against 500 random probes.

Regarding B3, the binding signal was 0.48 PBM z-score against 500 random probes.

A further series has as its target LXRa:RXRa (Homo sapiens, UniProt Q13133;P19793 full;full). Briefly: no ligand; PBM; 270 nM : 90 nM RXRa; PBS pH 7.4, 2% milk, 0.02% Triton X-100, 1 mM DTT, BSA, 0.4 mg/ml salmon testes DNA. Conditions: tags: His kept;His cleaved; copies: 1;1; label: surface-attached array probe. The procedure, abridged:
(§1)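 Custom Agilent 4×180K protein-binding microarrays carried double-stranded probes, each with a 34-nt variable region. These regions held direct-repeat seeds, single-nucleotide variants, half-site ablations and random human genomic background sequences. Ligand-free nuclear receptor dimers were incubated on the arrays for 1 h, antibodies against each partner (one per run) detected binding, and scanned fluorescence was regression-normalized. Binding z-scores take the random background probes as reference.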
As for B4, the binding signal is 3.8 PBM z-score against 500 random probes.

A further series has as its target RARg:RXRa (Homo sapiens, UniProt P13631;P19793 full;full). The description is as above. The following applies: tags: His kept;His cleaved; copies: 1;1; label: surface-attached array probe. The procedure, abridged: as §1
With B5, the binding signal was -0.66 PBM z-score against 500 random probes.

On to B6, for which the binding signal was -0.64 PBM z-score against 500 random probes.

As to B1, the binding signal is 7.45 PBM z-score against 500 random probes.

On to B2, for which the binding signal is 7.62 PBM z-score against 500 random probes.

Regarding B3, the binding signal was 0.17 PBM z-score against 500 random probes.

The next series concerns the target RARb:RXRa (Homo sapiens, UniProt P10826;P19793 full;full). The series is described as above. Conditions: tags: His kept;His cleaved; copies: 1;1; label: surface-attached array probe. The procedure, abridged: as §1
On to B5, for which the binding signal is -0.17 PBM z-score against 500 random probes.

In the case of B1, the binding signal is 5.54 PBM z-score against 500 random probes.

With B2, the binding signal was 5.84 PBM z-score against 500 random probes.

A further series has as its target VDR:RXRa (Homo sapiens, UniProt P11473;P19793 full;full). Described as above. Conditions: tags: His kept;His cleaved; copies: 1;1; label: surface-attached array probe. The procedure, abridged:
as §1
As for B7, the binding signal was 6.54 PBM z-score against 500 random probes.

For B1, the binding signal is 6.66 PBM z-score against 500 random probes.

With B8, the binding signal was 7.2 PBM z-score against 500 random probes.

As for B9, the binding signal was 3.23 PBM z-score against 500 random probes.

Take B10: the binding signal was 7.9 PBM z-score against 500 random probes.

As for B2, the binding signal was 7.51 PBM z-score against 500 random probes.

As to B11, the binding signal was 6.76 PBM z-score against 500 random probes.

Turning to B12, the binding signal is 0.37 PBM z-score against 500 random probes.

Regarding B13, the binding signal is 8.07 PBM z-score against 500 random probes.

Consider B14, for which the binding signal was 7.01 PBM z-score against 500 random probes.

On to B15, for which the binding signal is 7.28 PBM z-score against 500 random probes.

For the molecule B16, the binding signal was 7.31 PBM z-score against 500 random probes.

Consider B17, for which the binding signal was 8.01 PBM z-score against 500 random probes.

For B18, the binding signal was 7.24 PBM z-score against 500 random probes.

Take B19: the binding signal is 6.81 PBM z-score against 500 random probes.

The target of another series is PXR:RXRa (Homo sapiens, UniProt O75469;P19793 full;full). Described as above. Conditions: tags: His kept;His cleaved; copies: 1;1; label: surface-attached array probe. The procedure, abridged:
as §1
For B5, the binding signal is -0.66 PBM z-score against 500 random probes.

Regarding B7, the binding signal is 6.55 PBM z-score against 500 random probes.

For B6, the binding signal is -0.37 PBM z-score against 500 random probes.

As to B1, the binding signal was 6.45 PBM z-score against 500 random probes.

In the case of B20, the binding signal is 0.19 PBM z-score against 500 random probes.

Turning to B8, the binding signal is 7.4 PBM z-score against 500 random probes.

For B9, the binding signal was 3.15 PBM z-score against 500 random probes.

With B10, the binding signal is 6.76 PBM z-score against 500 random probes.

Consider B2, for which the binding signal was 6.46 PBM z-score against 500 random probes.

For the molecule B4, the binding signal is 3.42 PBM z-score against 500 random probes.

With B11, the binding signal is 6.69 PBM z-score against 500 random probes.

Regarding B12, the binding signal was -0.14 PBM z-score against 500 random probes.

With B13, the binding signal is 6.67 PBM z-score against 500 random probes.

As to B14, the binding signal is 6.39 PBM z-score against 500 random probes.

In the case of B3, the binding signal was -0.16 PBM z-score against 500 random probes.

Regarding B15, the binding signal was 7.41 PBM z-score against 500 random probes.

As for B16, the binding signal was 7.4 PBM z-score against 500 random probes.

Consider B17, for which the binding signal is 7.08 PBM z-score against 500 random probes.

As to B18, the binding signal is 7.5 PBM z-score against 500 random probes.

For B19, the binding signal was 6.61 PBM z-score against 500 random probes.

Consider B21, for which the binding signal is -0.65 PBM z-score against 500 random probes.

In another series the target is FXR:RXRa (Homo sapiens, UniProt Q96RI1;P19793 full;full). Described as above. Conditions: tags: His kept;His cleaved; copies: 1;1; label: surface-attached array probe. The procedure, abridged: as §1
Sequence of FXR:RXRa (Q96RI1 whole entry, chain 1 of 2): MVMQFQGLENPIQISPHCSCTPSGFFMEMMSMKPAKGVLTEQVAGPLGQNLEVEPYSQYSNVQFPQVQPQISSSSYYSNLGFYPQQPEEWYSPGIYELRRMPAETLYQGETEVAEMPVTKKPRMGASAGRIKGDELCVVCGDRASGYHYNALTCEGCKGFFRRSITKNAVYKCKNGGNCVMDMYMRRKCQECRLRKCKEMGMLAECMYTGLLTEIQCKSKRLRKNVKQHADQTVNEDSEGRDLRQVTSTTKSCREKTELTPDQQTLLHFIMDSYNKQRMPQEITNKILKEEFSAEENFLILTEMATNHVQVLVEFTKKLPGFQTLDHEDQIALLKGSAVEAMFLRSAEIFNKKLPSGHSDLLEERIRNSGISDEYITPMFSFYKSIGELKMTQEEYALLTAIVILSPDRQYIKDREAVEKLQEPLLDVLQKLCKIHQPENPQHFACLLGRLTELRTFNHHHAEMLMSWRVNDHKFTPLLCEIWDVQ
Sequence of FXR:RXRa (P19793 whole entry, chain 2 of 2): as the sequence (P19793 whole entry, chain 2 of 2) above
In the case of B1, the binding signal is 8.27 PBM z-score against 500 random probes.

Turning to B11, the binding signal is 7.77 PBM z-score against 500 random probes.

A further series deals with LXRb:RXRa (Homo sapiens, UniProt P55055;P19793 full;full). The description is as above. Conditions: tags: His kept;His cleaved; copies: 1;1; label: surface-attached array probe. The procedure, abridged: as §1
Sequence of LXRb:RXRa (P55055 whole entry, chain 1 of 2): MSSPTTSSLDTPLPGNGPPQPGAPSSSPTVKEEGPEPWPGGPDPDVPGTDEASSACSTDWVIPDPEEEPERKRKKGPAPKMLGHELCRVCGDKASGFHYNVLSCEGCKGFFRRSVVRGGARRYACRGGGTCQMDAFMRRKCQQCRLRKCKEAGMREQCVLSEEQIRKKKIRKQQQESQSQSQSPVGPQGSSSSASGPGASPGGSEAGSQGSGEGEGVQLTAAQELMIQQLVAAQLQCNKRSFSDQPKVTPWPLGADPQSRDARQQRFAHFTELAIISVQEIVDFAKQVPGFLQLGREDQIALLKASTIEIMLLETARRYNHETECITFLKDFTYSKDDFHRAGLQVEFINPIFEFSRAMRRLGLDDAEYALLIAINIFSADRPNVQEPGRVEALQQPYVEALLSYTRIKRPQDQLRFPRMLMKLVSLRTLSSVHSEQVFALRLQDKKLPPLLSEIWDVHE
Sequence of LXRb:RXRa (P19793 whole entry, chain 2 of 2): as the sequence (P19793 whole entry, chain 2 of 2) above
In the case of B5, the binding signal is -0.41 PBM z-score against 500 random probes.

As to B6, the binding signal was 0.06 PBM z-score against 500 random probes.

In the case of B20, the binding signal was 0.12 PBM z-score against 500 random probes.

For B12, the binding signal was 0.07 PBM z-score against 500 random probes.

Turning to B21, the binding signal is -1 PBM z-score against 500 random probes.
